Assays:
[1] = target: T1, Angiopoietin-2 binding to Tie-2 (Homo sapiens, UniProt O15123); test: Competitive binding assay (modified ELISA): inhibition of Angiopoietin-2 binding to Tie-2
T1 construct: purchased R&D Systems, Inc. BT623 (Angiopoietin-2, biotinylated); 313-TI-100 (Tie-2/Fc)
T1 sequence (O15123 19-496): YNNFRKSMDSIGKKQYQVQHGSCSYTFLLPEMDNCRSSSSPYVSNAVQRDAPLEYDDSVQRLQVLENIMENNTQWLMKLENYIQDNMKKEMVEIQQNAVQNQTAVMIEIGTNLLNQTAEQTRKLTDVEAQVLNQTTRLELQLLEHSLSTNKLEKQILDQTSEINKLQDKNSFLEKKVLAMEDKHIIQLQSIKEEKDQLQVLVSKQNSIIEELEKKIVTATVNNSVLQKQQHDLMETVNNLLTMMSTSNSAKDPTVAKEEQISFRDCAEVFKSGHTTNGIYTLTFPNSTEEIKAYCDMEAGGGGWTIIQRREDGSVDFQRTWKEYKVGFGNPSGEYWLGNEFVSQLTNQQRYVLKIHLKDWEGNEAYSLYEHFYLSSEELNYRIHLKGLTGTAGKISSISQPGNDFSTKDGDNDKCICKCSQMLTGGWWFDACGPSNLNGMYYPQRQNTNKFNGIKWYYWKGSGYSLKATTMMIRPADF
Experimental: As discussed above, Angiopoietin-2 exerts its biological effect by binding to the Tie-2 receptor. Monoclonal antibodies that inhibited Angiopoietin-2/Tie-2 binding were identified by a competitive binding assay using a modified ELISA. The mAb used were products of micro-purification from 50 ml of exhaustive supernatants of the hybridoma pools that were specific for Angiopoietin-2 (see above). 96-well Nunc Immplates™ were coated with 100 μl of recombinant human Tie-2/Fc fusion protein (R&D Systems, Inc., Cat. No. 313-TI-100) at 4 μg/ml by incubating overnight at 4° C. The plates were washed four times using Phosphate Buffer Saline (PBS) with a Skan™ Washer 300 station (SKATRON). The wells were blocked by 100 μl of ABX-blocking buffer (0.5% BSA, 0.1% Tween, 0.01% Thimerosal in PBS) for 1 hour.
Biotinylated recombinant human Angiopoietin-2 (R&D Systems, Inc. Cat. No. […] The plates were incubated at room temperature for two hours before the unbound molecules were washed off. Bound biotinylated Angiopoietin-2 was then detected using 100 μl/well of Streptavidin-HRP conjugate at 1:200 by incubating at room temperature for half an hour. After washing twice, the bound Streptavidin was detected by HRP substrate (R&D Systems, Cat. No. DY998). The plates were incubated for 30 minutes before 450 stop solution (100 μl/well, BioFX, Cat# BSTP-0100-01) was added to terminate the reaction. The light absorbance at 450 nm was determined by a Spectramax Plus reader.
Soluble recombinant Tie-2/Fc fusion protein at 10-fold molar excess to Angiopoietin-2 was used as a positive control. At this concentration, Tie-2/Fc inhibited binding of Angiopoietin-2 to immobilized Tie-2 by 80%.
To quantitate the inhibitory activities of the mAb on Angiopoietin-2 binding to Tie-2, the titer was determined for purified mAbs from the top candidates using a competitive binding assay. Each concentration of the mAb was tested in duplicate. The concentration-response relationship was found by curve fitting using Graphpad Prism™ graphic software (non-linear, Sigmoid curve). The maximal inhibition (efficacy) and IC50 (potency) were calculated by the software.

[2] = test system: human HT29 colon tumour xenografts; test: HT29 xenograft efficacy study; format: in vivo; conditions: AZD2171 1.5 mg/kg/day p.o. d 0-27, 3.19.3 10 mg/kg i.p. day 0, 3, 7, 10, 14, 17, 21 and 24
Experimental: The efficacy of mAb 3.19.3 in combination with AZD2171 was evaluated in human HT29 xenografts. Briefly, 5×10^6 HT29 tumour cells in 0.1 ml of serum free Roswell Park Memorial Institute (RPMI)-1640 medium were injected subcutaneously into the flanks of 60 athymic (nu/nu genotype) mice. When tumours reached a volume of 200 to 400 mm^3 (9-10 days), mice were randomized into groups (8 per group) and treatment started (day 0).
The control group (Group 1) received a daily oral (p.o.) administration of vehicle only for 28 consecutive days (day 0-27). Group 2 treatment consisted of a daily p.o. administration of AZD2171 alone at 1.5 mg/kg/administration for 28 consecutive days (day 0-27). AZD2171 was prepared as a suspension in 1% polysorbate 80 (i.e. a 1% (v/v) solution of polyoxyethylene (20) sorbitan mono-oleate in deionised water). […]
Tumour volumes (mm^3) were assessed at least twice weekly by bilateral Vernier caliper measurement and, taking length to be the longest diameter across the tumor and width the corresponding perpendicular, calculated using the formula (π/6)×(length×width)×√ (length×width). Growth inhibition from the start of treatment was assessed by comparison of the differences in tumor volume between control and treated groups. […] For all mice, the tumours were excised and weights recorded upon termination of the study.

[3] = test system: human LoVo colon tumour xenografts; format: in vivo; conditions: 3.19.3 10 mg/kg 2×wk i.p., Zactima 50 mg/kg/day p.o.
Experimental: The anti-tumor activity of monoclonal antibody 3.19.3 was evaluated in the LoVo xenograft model of colorectal cancer. Briefly, LoVo cells were cultured in flasks as routine until the cells reached sub-confluence. Immunodeficient 8 week old male NCr nude mice were used. Cell suspensions containing 3×10^6 cells were injected subcutaneously into the right flank of the mice, and after the tumour volume reached 200 mm^3, the mice were randomized in groups and the treatments were initiated. mAb 3.19.3 10 mg/kg in saline was injected intraperitoneally, twice per week for 2 weeks. Zactima™ was treated peroral daily at doses ranging from 25 to 50 mg/kg in water containing 1% Tween80. The dimensions of each tumor were measured twice per week. The volume of the tumor was calculated as: Volume=Length×(Width)^2×0.5 (cm^3).

B1: mAb 3.19.3: fully human anti-Angiopoietin-2 monoclonal antibody, variable regions SEQ ID NO: 5-8; also binds Angiopoietin-1 (antibody, V domains shown)
VH: QVQLVESGGGVVQPGRSLRLSCAASGFTFTNYGMHWGRQAPGKGLEWVAVISHDGNNKYYVDSVKGRFTISRDNSKNTLYLQMNSLRAEDTAVYYCAREGIDFWSGLNWFDPWGQGTLVTVSSA
VL: EIVLTQSPGTLSLSPGERATLSCRASQSITGSYLAWYQQKPGQAPRLLICGASSWATGIPDRFSGSGSGTDFTLTISRLEPEDFAVYYCQQYSSSPITFGQGTRLEIKR
EC50 ([1]; potency, competitive binding of Angiopoietin-2 to Tie-2, purified mAb): 0.7976 µg/mL | Efficacy* ([1]; ratio of bound Angiopoietin-2 with mAb (30 μg/ml) versus without mAb): 0.3945 | Inhibition of Control Tumour Growth Day 28 [2]: 40% | tumour inhibition [3]: 48%

Source: patent US20090123474A1, “COMBINATION OF ANGIOPOIETIN-2 ANTAGONIST AND OF VEGF-A, KDR AND/OR FLTL ANTAGONIST FOR TREATING CANCER” (ASTRAZENECA AB, priority 2005, published 2009)
